Laboratory results published in article PMC9651861 (2022).
Values belong to the binder of their own block, whether it stands above or below them.

Legend:
human serum albumin [1] = biological target: T1, human serum albumin (human, UniProt P02768 25-609); experiment: MST
human serum albumin [2] = biological target: T1, human serum albumin; experiment: BLI
human serum albumin [3] = biological target: T1, human serum albumin; experiment: BLI; remark: listed apart in the source

Kd (human serum albumin [3]): ~370 nM
B5: Nb.B201 (VHH)
VHH: QVQLQESGGGLVQAGGSLRLSCAASGYISDAYYMGWYRQAPGKEREFVATITHGTNTYYADSVKGRFTISRDNAKNTVYLQMNSLKPEDTAVYYCAVLETRSYSFRYWGQGTQVTVSS

Kd (human serum albumin [2]): 412 nM
B6: DesAb-HSA-P2 (VHH)
VHH: EVQLEESGGGLVQPGGSLRLSCAASGFNIKDTYIGWVRQAPGKGEEWVASIYPTSGYTRYADSVKGRFTISADTSKNTAYLQMNSLRAEDTAVYYCAAGSAQAGNAEEAEEEFDYWGQGTLVTVSS

Kd (human serum albumin [1]): 810 nM
B7: DesAb-HSA-P2, C-terminal cysteine variant labelled with Alexa Fluor 647 (VHH)
VHH: B6 VHH
modifications: Alexa Fluor 647 (maleimide) on the free C-terminal cysteine of the Asp-Cys-Glu motif

More lines, now with the values behind:

B1: DesAb-HSA-D3, C-terminal cysteine variant labelled with Alexa Fluor 647 (VHH)
VHH: EVQLQESGGGLVQAGGSLRLSCAASGELYALISMGWFRQAPGKEREFVAAISRNGDNTYYTDSVKGRFTISRDNAKNTVELQMNSLKPEDTAVYYCAADKFASPDGSVTIMTNEYDYWGQGTQVTVSD
modifications: Alexa Fluor 647 (maleimide) on the free C-terminal cysteine of the Asp-Cys-Glu motif
Kd (human serum albumin [1]): 146 nM

B2: DesAb-HSA-D3 (VHH)
VHH: B1 VHH
Kd (human serum albumin [2]): 308 nM

B3: DesAb-HSA-P1, C-terminal cysteine variant labelled with Alexa Fluor 647 (VHH)
VHH: EVQLEESGGGLVQPGGSLRLSCAASGFNIKDTYIGWVRQAPGKGEEWVASIYPTSGYTRYADSVKGRFTISADTSKNTAYLQMNSLRAEDTAVYYCAAGSIQKSLQTAESILEEFDYWGQGTLVTVSS
modifications: Alexa Fluor 647 (maleimide) on the free C-terminal cysteine of the Asp-Cys-Glu motif
Kd (human serum albumin [1]): 140 nM

B4: DesAb-HSA-P1 (VHH)
VHH: B3 VHH
Kd (human serum albumin [2]): 279 nM
